Test results published in US12514920B1, “Respiratory syncytial virus mRNA vaccine, and preparation method therefor and use thereof” (Hangzhou Tianlong Pharmaceutical Co., Ltd., priority 2024, dated 2026).

Columns and labels:
RSV F antibody (11A9) = assay: Binding of epitope II of RSV F antigen mutants by flow cytometry; conditions: epitope II, antibody 11A9
In short: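 293T cells were transfected with mRNA-LNP (300 ng mRNA) encoding the RSV F mutants and harvested after 16 h. Cells were stained with fluorescent 3C12 (pre-F-specific epitope Φ) or 11A9 (epitope II, pre-F and post-F) for 2 h at 4 °C in the dark, then washed and read by flow cytometry on 1×10^4 cells per measurement.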

[1] = target: RSV pre-F antibody (7H11); assay: Affinity of RSV F antigen mutants by BLI, epitope Quaternary; assay type: binding
Description: To investigate the affinity of the RSV F antigen mutants for antibodies specifically recognizing epitopes in a pre-fusion conformation, the affinity was determined by a bio-layer interferometry (BLI) method in this example.
The antibodies were each diluted to 10 g/mL with a 1×PBST solution.
The detection was performed using a protein interaction analyzer, and the results were analyzed using Data Analysis 12.0 software to obtain the binding rate, dissociation rate, and affinity constants.

[2] = system: RSV pre-F antibody (3C12); assay type: physicochemical; conditions: for stability under the stress tests (in words): all stress tests, binding to 3C12, ELISA; for Stress resistance parameter, Osmotic pressure (mM) 3000: high osmotic pressure 3000 mM; for Stress resistance parameter, Osmotic pressure (mM) 3000 / Stress resistance parameter, Osmotic pressure (mM) 10: room temperature; for Stress resistance parameter, Osmotic pressure (mM) 3000 / Stress resistance parameter, Osmotic pressure (mM) 10 / Stress resistance parameter, pH 3.5 / Stress resistance parameter, pH 10: 60 min; for Stress resistance parameter, Osmotic pressure (mM) 3000 / Stress resistance parameter, Temperature (° C.) 50 / Stress resistance parameter, Osmotic pressure (mM) 10 / Stress resistance parameter, pH 3.5 / Stress resistance parameter, pH 10 / Stress resistance parameter, Temperature (° C.) 4: ELISA binding to 3C12; for Stress resistance parameter, Temperature (° C.) 50: incubation at 50° C. for 60 min; for Stress resistance parameter, Osmotic pressure (mM) 10: low osmotic pressure 10 mM; for Stress resistance parameter, pH 3.5: pH 3.5, room temperature; for Stress resistance parameter, pH 10: pH 10, room temperature; for Stress resistance parameter, Temperature (° C.) 4: storage at 4° C. for one week
In short: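 RSV F mRNA-vaccine mutants stress-treated: 4° C. for one week, 50° C. for 60 min, low or high osmotic pressure at room temperature for 60 min, acid or base at room temperature for 60 min. Binding to 3C12 (epitope Φ) then measured by ELISA against pre-F trimer standard, HRP anti-human IgG, OD 450/630 nm.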

Molecule	RSV F antibody (11A9) Epitope II (%) binding rate (RSV F antibody (11A9)) [%]	Kd [1] [pM]	stability under the stress tests (in words) [2]	Stress resistance parameter, Osmotic pressure (mM) 3000 [2]	Stress resistance parameter, Temperature (° C.) 50 [2]	Stress resistance parameter, Osmotic pressure (mM) 10 [2]	Stress resistance parameter, pH 3.5 [2]	Stress resistance parameter, pH 10 [2]	Stress resistance parameter, Temperature (° C.) 4 [2]
YK-RSV-048 (protein) QNITEEFYQSTCSAVSKGYLGALRTGWYTSVITIELSNIKENKCNGTDAKVKLIKQELDKYKNAVTDLQLLMQSTPATGSGSFLGFLCGVGSAIASGVAVSKVLHLEGEVNKIKSALLSTNKAVVSLSNGVSVLTFKVLDLKNYIDKQLLPILNKQSCSIPNIETVIEFQQKNNRLLEITREFSVNAGVTTPVSTYMLTNSELLSLINDMPITNDQKKLMSNNVQIVRQQSYSIMSIIKEEVLAYVVQLPLYGVIDTPCWKLHTSPLCTTNTKEGSNICLTRTDRGWYCDNAGSVSFFPQAETCKVQSNRVFCDTMCSRTLPSEVNLCNVDIFNPKYDCKIMTSKTDVSSSVITSLGAIVSCYGKTKCTASNKNRGIIKTFSNGCDYVSNKGVDTVSVGNTLYYVNKQEGQSLYVKGEPIINFYDPLVFPSDEFDASISQVNEKINQSLAFIRKSDELLHNVNAGKSTTNIMITTIIIVIIVILLSLIAVGLLLY	95.1	227	superior stability	0.61 ± 0.17	0.70 ± 0.07	0.75 ± 0.00	0.61 ± 0.07	1.13 ± 0.19	0.46 ± 0.08
YK-RSV-050 (protein) QNITEEFYQSTCSAVSKGYLGALRTGWYTSVITIELSNIKENKCNGTDAKVKLIKQELDKYKNAVTDLQLLMQSTPATGSGSFLGFCLGVGSAIASGVAVSKVLHLEGEVNKIKSALLSTNKAVVSLSNGVSVLTFKVLDLKNYIDKQLLPILNKQSCSIPNIETVIEFQQKNNRLLEITREFSVNAGVTTPVSTYMLTNSELLSLINDMPITNDQKKLMSNNVQIVRQQSYSIMSIIKEEVLAYVVQLPLYGVIDTPCWKLHTSPLCTTNTKEGSNICLTRTDRGWYCDNAGSVSFFPQAETCKVQSNRVFCDTMCSRTLPSEVNLCNVDIFNPKYDCKIMTSKTDVSSSVITSLGAIVSCYGKTKCTASNKNRGIIKTFSNGCDYVSNKGVDTVSVGNTLYYVNKQEGQSLYVKGEPIINFYDPLVFPSDEFDASISQVNEKINQSLAFIRKSDELLHNVNAGKSTTNIMITTIIIVIIVILLSLIAVGLLLY	93.0	115	superior stability	0.66 ± 0.15	0.69 ± 0.15	0.87 ± 0.19	1.23 ± 0.27	1.16 ± 0.37	0.46 ± 0.07
YK-RSV-009 (protein) QNITEEFYCSTCSAVSKGYLGALRTGWYTSVILIELSNIKENKCNGTDAKVKLIKQELDKYKNAVTDLQLLMQSTPATGSGSAIASGVAVSKVLHLEGEVNKIKSALLSTNKAVVSLSNGVSVLTFKVLDLKNYIDKQLLPIVNKQSCSIPNIETVIEFQQKNNRLLEITREFSVNAGVTTPVSTYMLTNSELLSLINDMPITNDQKKLMSNNVQIVRQQSYSIMSIIKEEVLAYVVQLPLYGVIDTPCWKLHTSPLCTTNTKEGSNICLTRTDRGWYCDNAGSVSFFPQAETCKVQSNRVFCDTMNSRTLPSEVNLCNVDIFNPKYDCKIMTSKTDVSSSVITSLGAIVSCYGKTKCTASNKNRGIIKTFSNGCDYVSNKGVDTVSVGNTLYYVNKQEGQSLYVKCEPIINFYDPLVFPSSEFDASISQVNEKINQSLAFIRKSDELLHNVNAGKSTTNIMITTIIIVIIVILLSLIAVGLLLY	93.1		superior stability	0.69 ± 0.15	0.84 ± 0.04	0.78 ± 0.15	0.60 ± 0.14	0.91 ± 0.04	0.71 ± 0.11
YK-RSV-043 (protein) QNITEEFYQSTCSAVSKGYLGALRTGWYTSVITIELSNIKENKCNGTDAKVKLIKQELDKYKNAVTDLQLLMQSCPATGSGSAIACGVAVSKVLHLEGEVNKIKSALLSTNKAVVSLSNGVSVLTFKVLDLKNYIDKQLLPILNKQSCSIPNIETVIEFQQKNNRLLEITREFSVNAGVTTPVSTYMLTNSELLSLINDMPITNDQKKLMSNNVQIVRQQSYSIMSIIKEEVLAYVVQLPLYGVIDTPCWKLHTSPLCTTNTKEGSNICLTRTDRGWYCDNAGSVSFFPQAETCKVQSNRVFCDTMNSRTLPSEVNLCNVDIFNPKYDCKIMTSKTDVSSSVITSLGAIVSCYGKTKCTASNKNRGIIKTFSNGCDYVSNKGVDTVSVGNTLYYVNKQEGQSLYVKGEPIINFYDPLVFPSDEFDASISQVNEKINQSLAFIRKSDELLHNVNAGKSTTNIMITTIIIVIIVILLSLIAVGLLLY			superior stability	0.72 ± 0.09	0.66 ± 0.06	0.84 ± 0.18	0.90 ± 0.13	0.75 ± 0.28	0.70 ± 0.13
YK-RSV-010 (protein) QNITEEFYQSTCSAVSKGYLGALRTGWYTCVILIELSNIKENKCNGTDAKVKLIKQELDKYKNAVTDLQLLMQSTPATGSGSAIASGVAVSKVLHLEGEVNKIKSALLSTNKAVVSLSNGVSVCTFKVLDLKNYIDKQLLPIVNKQSCSIPNIETVIEFQQKNNRLLEITREFSVNAGVTTPVSTYMLTNSELLSLINDMPITNDQKKLMSNNVQIVRQQSYSIMSIIKEEVLAYVVQLPLYGVIDTPCWKLHTSPLCTTNTKEGSNICLTRTDRGWYCDNAGSVSFFPQAETCKVQSNRVFCDTMNSRTLPSEVNLCNVDIFNPKYDCKIMTSKTDVSSSVITSLGAIVSCYGKTKCTASNKNRGIIKTFSNGCDYVSNKGVDTVSVGNTLYYVNKQEGQSLYVKGEPIINFYDPLVFPSSEFDASISQVNEKINQSLAFIRKSDELLHNVNAGKSTTNIMITTIIIVIIVILLSLIAVGLLLY			superior stability	0.84 ± 0.11	1.04 ± 0.09	0.97 ± 0.07	0.82 ± 0.05	0.93 ± 0.05	0.86 ± 0.08
YK-RSV-055 (protein) QNITEEFYQSTCSAVSKGYLGALRTGWYTSVITIELSNIKENKCNGTDAKVKLIKQELDKYKNAVTDLQLLMQSTPATGSGSCIASGVAVSKVLHLEGEVNKIKSALLSTNKAVVSLSNGVSVLTFKVLDLKNYIDKQLLPILNKQSCSIPNIETVIEFQQKNNRLLEITREFSVNAGVTTPVSTYMLTNSELLSLINDMPITNDQKKLMSNNVQIVRQQSYSIMSICKEEVLAYVVQLPLYGVIDTPCWKLHTSPLCTTNTKEGSNICLTRTDRGWYCDNAGSVSFFPQAETCKVQSNRVFCDTMNSRTLPSEVNLCNVDIFNPKYDCKIMTSKTDVSSSVITSLGAIVSCYGKTKCTASNKNRGIIKTFSNGCDYVSNKGVDTVSVGNTLYYVNKQEGQSLYVKGEPIINFYDPLVFPSDEFDASISQVNEKINQSLAFIRKSDELLHNVNAGKSTTNIMITTIIIVIIVILLSLIAVGLLLY			superior stability	0.71 ± 0.23	0.78 ± 0.19	0.72 ± 0.20	0.69 ± 0.08	0.79 ± 0.26	0.48 ± 0.11
YK-RSV-057 (protein) QNITEEFYQSTCSAVSKGYLGALRTGWYTSVITIELSNIKENKCNGTDAKVKLIKQELDKYKNAVTDLQLLMQSTPATGSGSCIASGVAVSKVLHLEGEVNKIKSALLSTNKAVVSLSNGVSVLTFKVLDLKNYIDKQLLPILNKQSCSIPNIETVIEFQQKNNRLLEITREFSVNAGVTTPVSTYMLTNSELLSLINDMPITNDQKKLMSNNVQIVRQQSYSIMSCIKEEVLAYVVQLPLYGVIDTPCWKLHTSPLCTTNTKEGSNICLTRTDRGWYCDNAGSVSFFPQAETCKVQSNRVFCDTMNSRTLPSEVNLCNVDIFNPKYDCKIMTSKTDVSSSVITSLGAIVSCYGKTKCTASNKNRGIIKTFSNGCDYVSNKGVDTVSVGNTLYYVNKQEGQSLYVKGEPIINFYDPLVFPSDEFDASISQVNEKINQSLAFIRKSDELLHNVNAGKSTTNIMITTIIIVIIVILLSLIAVGLLLY			superior stability	0.64 ± 0.15	0.64 ± 0.17	0.70 ± 0.07	0.56 ± 0.08	0.56 ± 0.09	0.61 ± 0.10
